# Data taken from US20220136009, “COMPOSITIONS AND METHODS FOR SELECTIVE GENE REGULATION” (Encoded Therapeutics, Inc., published 2022).
# Experiments:
# Conditions in all cases: tags: NLS, HA tag
# [1] = target: Construct 4 eTF (eZF z1-VP64) (synthetic construct); experiment: cell_activity; endogenous SCN1A mRNA in HEK293 vs EGFP-KASH; p=0.0097; also about 20-30% Scn1a upregulation in mouse hippocampus
# Description: (§1) HEK293 cells were cultured per standard methods, and transfected (FugeneHD, Promega) with 3 ug plasmid carrying an engineered transcription factor or control construct per well of a 6-well plate. 48h following transfection, cells were collected and RNA was isolated (Qiagen RNeasy Mini kit), and DNase treated. RNA (3 ug) was reverse transcribed using OligoDT primers (Superscript IV, Invitrogen). cDNA samples were analyzed by qPCR using Phusion Polymerase (New England Biolabs) and SYBR Green I: (30s at 98° C., 40×[10 sec at 98° C., 15 sec at 66° C., 15 sec at 72° C.]). Primers against SCN1A (5′-[…]-3′ (SEQ ID NO: 185); 5′-[…]-3′ (SEQ ID NO: 186)) were used to quantify levels of endogenous SCN1A transcript, and relative levels of SCN1A expression were determined by the delta-delta Ct method with GAPDH as a reference gene (5′-[…]′-3′ (SEQ ID NO: 187); 5′-[…]-3′ (SEQ ID NO: 188)). Data are presented as fold changes relative to the control condition.
# [2] = target: Construct 29 eTF (eZF z14-VP64) (synthetic construct); experiment: cell_activity; endogenous SCN1A mRNA in HEK293 vs EGFP-KASH; p=0.164
# Description: as §1
# [3] = target: Construct 30 eTF (eZF z13-VPR) (synthetic construct); experiment: cell_activity; SCN1A mRNA by RNAseq in iCell GABA neurons vs CBA-EGFP; SCN1A-selective among 40 neighbouring genes
# Description: iCell GABA neurons (Cellular Dynamics) were plated in a 6-well plate (˜1E6 cells/well) and maintained per manufacturer's recommended protocol. 72h following plating, recombinant AAV (serotype AAV-DJ) expressing EGFP or activator (Construct 30), which comprises a zinc finger DBD fused to a VPR TAD driven by a CBA promoter) under the control of a CBA promoter was added to the culture media at approximately 2E11 genome copies/well.
# One week following infection, RNA was isolated from cultured cells (Qiagen RNeasy Mini kit), and DNase treated. RNAseq libraries were prepared from the recovered RNA, using the TruSeq Stranded mRNA library kit (Illumina) and sequenced on an Illumina NextSeq (2×75 cycle paired end sequencing). Sequencing reads were aligned to human genome (RNASTAR) and differential expression analysis was performed with DESeq2. Data are presented as fold change with respect to control (AAVDJ-CBA-EGFP) samples (see FIG. 4). Results are shown in TABLE 14 and FIG. 4 illustrates the relative expression of endogenous SCN1A and the 40 nearest neighboring gene transcripts presented as fold changes relative to the control condition. Construct 30, as described in TABLE 1, was able to specifically increase expression of the SCN1A gene, or the Nav1.1 protein, as compared to the other genes examined. […]
# [4] = target: Construct 3 eTF (eZF z13-VP64) (synthetic construct); experiment: cell_activity; endogenous SCN1A mRNA in HEK293 vs EGFP-KASH; p=0.149
# Description: as §1
# Sequence of Construct 30 eTF (eZF z13-VPR) (synthetic construct) (chain, as listed by the source): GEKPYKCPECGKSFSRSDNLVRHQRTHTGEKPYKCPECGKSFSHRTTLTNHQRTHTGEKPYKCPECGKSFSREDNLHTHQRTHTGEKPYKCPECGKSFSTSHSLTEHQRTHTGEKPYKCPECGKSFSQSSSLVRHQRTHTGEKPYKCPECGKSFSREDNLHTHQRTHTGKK
binder,measurement,setting,value
z1 target site (dsDNA) DNA 1: CTAGGTCAAGTGTAGGAG DNA 2: CTCCTACACTTGACCTAG,activity,[1],5.12 fold
z14 target site (dsDNA) DNA 1: GAGGATACTGCAGAGGTC DNA 2: GACCTCTGCAGTATCCTC,activity,[2],8.68 fold
z13 target site (dsDNA) DNA 1: TAGGTACCATAGAGTGAG DNA 2: CTCACTCTATGGTACCTA,activity,[3],63 fold
same,activity,[4],25.5 fold
